The values that follow come from the DeepSol protein solubility set.

This series is described as follows: soluble on expression in E. coli; label from the status in PepcDB or PDB records.
In the case of “MGSDKIHHHHHHMWFKNLQLHRFSAPWSPSADEVEASLAKHAFFPGTSLEMQTQGWASPRDNGQLVHAVGRQMLLTLRTEKKLLPATVVNQVTKARAAEVEEQQGYKPGRKQLRELKEQVTEELLPRAFSIRRDTRVWIDPDNGWLAIDAASTAKADEVRGMLFKALDALPLANLHVNQSPVAAMTDWLSTDVAPAGFTVDQEIELQSGSESKATVRYVRHPLDAEDLRRHISGGKRCTRLAMTWNDRVSFVLTDSLAIKRVAPLDVIKEQADGTVSDEDERFDADFTLMAGELAGMLGDLTEALGGERKA”, the “soluble on expression in E. coli” value was “not soluble”.

For “MGSDKIHHHHHHMWQDILNIHPDCIEDFINFDKLPGQAASLIAFAGMSYLQTEYKIGKTGKGNICLNNENNSGHVHYLISTHAGEGKIKLGNNEYLVKPGSIVLLPAGTPFLYELSGEYWEMCWLLLHDCSEYKFVHQLHPSVYSSINAERLYQTMSLIREFQHGESIYQSDIILRLVEVLVYQIAQTLNMGQQLTKQQQKFHSLIRRVNKQLQLSWTVKQLAAEMHMSEPHFFRLCKKEMGMTPIKLLTHTRLEYACYLLRYTQYNLDQIADTVGYGDSASFAHRFKKDYGLSPGRWRKEQINNFQSNDIENGEKR”, the “soluble on expression in E. coli” value is “not soluble”.

For the sequence “MGSDKIHHHHHHMWTGFFSKSGTGIAEERHQNRRACTDVPLLAERNSKHPDRPYGFAKYRQSGLDIYAWHGIYFFPRFPFIDIDCIRWVCAGLKAFKHYIRENGLPDLIHAHRMNYAGILAQKISQKYGIPYVVTEHSSTITRGLIRPHQWQPMEKAAAHASALLAVSRHFAHVLQHKYGCEWQYLPPTYWAEYSTDRLNKEKKTTNRISCSAPSRTFAVSKDTMSYSLPLPGRWHNARNCA”, the “soluble on expression in E. coli” value is “not soluble”.

Turning to “MGSDKIHHHHHHMYANKVKKIAAVHDLSGMGRVSLTVVIPILSSMGFQVCPLPTAVLSNHTQYPGFSFLDLTDEMPKIIAEWKKLEVQFDAIYTGYLGSPRQIQIVSDFIKDFRQPDSLIVADPVLGDNGRLYTNFDMEMVKEMRHLITKADVITPNLTELFYLLDEPYKADSTDEELKEYLRLLSDKGPQVVIITSVPVHDEPHKTSVYAYNRQGNRYWKVTCPYLPAHYPGTGDTFTSVITGSLMQGDSLPMALDRATQFILQGIRATFGYEYDNREGILLEKVLHNLDMPIQMASYELI”, the “soluble on expression in E. coli” value is “not soluble”.

As for “MGSDKIHHHHHHMYCGVPEEDPDKLVALILSGGQSSRMGTDKGSMELNGERLVERAGNLCASAGLPFYYSINASQNQQYLNFLPADALIVDTLDDIKGPLAGLLSFYVKYPNTDVLLLPCDMIHLGKSILSDLVQAYETMSIGHDIIVYQYANEIIEPMPGIYTSEALRKIYWLFLSGDLTRFSLKYCIEISNSFFIPIKKEAEVLFKNINSPEDITPSK”, the “soluble on expression in E. coli” value is “not soluble”.

Turning to “MGSDKIHHHHHHMYLVRNMEHVEPNIDGFKYYCSRFKNHFSFDERLTPWSCPHCKIGRLIAKEENFFCQETLILHSERKPSLQYSGFFICNCCDNKTFSTGTGKNNYYCGGDDETGDFTEMYVNEYTPQFFSPSIMLFNPPASTPQSVRDSLKRAFSICWCDIPASCNVLRVTVEILLKERWPEVPIVINGQNLNKKLNELKKIEASQPKLLEILDYFLAIKWLGNNGSHDAELEERDLAVAFKIMDKALILLYSRDDNSVSEWVRMINAAEGRPIKS”, the “soluble on expression in E. coli” value is given as “not soluble”.

In the case of “MGSDKIHHHHHHMYNEGVTSPSQLARKKNATDKWHGSSIRKILENPHYTGTLQQCREYRPSVTSKRRRSVNLENQIIIEKSHEPIIPLEDFLIVQEILITRKRRRPQAEVHLFTNTAVCKDCRRSMHFKKNRKGYVCGSYNKHGLKACSDHYVSEIDLTDKVITNLNKIYLKFSKENYFKELSEKALKYKEKIESKIIEINEKLNDKKRDKSNLVISLANGVISKEDYQLAINITNEDISNFETTLHQLSKDLEFQKIEKEIIDFKKSLDKFMKEGTLTPEMLHLLVDEIEVHANGTIEINYRFREPTVPSA”, the “soluble on expression in E. coli” value was “not soluble”.

Regarding “MGSDKIHHHHHHMYQNDFVMPKSVYLLNHSVGRPLQSLRQAFDERFFLPWQGSGREPWGDWLSVVEDFRVQLARLFNSETRLFCPQVNLSSGLTKLVQSHSRLRRPGAVILMSENDFPSMGFALRQALPEAEIRFIPANLDVSLAEVWQAHLTDDIDLVFISHAYSNTGQQAPLDYLIPKVRELGALSLVDVAQAAGVLPLDLNALKPDFMLGSSVKWLCGGPGAAYLWVSAAQLVHCSPQDVGWFSHENPFEFDIHDFRYHDSALKFWGGTPSVAPFALAAHSIGYFAELGSDKVRQHNLMQLQRIWRQAGDALVSPSDAARCSGTAILDFGEDQQAVVEALTQADISLDVRKQGMRISPHIYNGEQDLQRLLEALAPFCR”, the “soluble on expression in E. coli” value was “not soluble”.

Turning to “MGSDKIHHHHHHMYRIRVFGDPVLRKRAKPVTKFDENLKKTIERMIETMYHYDGVGLAAPQVGISQRFFVMDVGNGPVAVINPEILEIDPETEVAEEGCLSFPEIFVEIERSKRIKVKYQNTRGEYVEEELEGYAARVFQHEFDHLNGVLIIDRISPAKRLLLRKKLMDIARTVKR”, the “soluble on expression in E. coli” value is “soluble”.

For “MGSDKIHHHHHHNKESTTECQTIDFSTLFDGQPEKIPLKEWAKSIHFVQLETNDSILIGNIRATILHKDKILVHHNNLSLFDLSGKFICNIGSKGGGPTEYSGINNAWTDDEGIHIFDIDNKIKTYNWNGKWIKTEPIPESNIKEVFPLASGNNIKAGYIQNITGNEPHKIYLFKDSTILAKIPYGKSFQKGEMTMVFYNECYPFHADGRTFFKEMFNDTIFSIDNQYQPIPRWYIELGKYKIAEDARYTLTDPRKSVFDNAATLTPIGKWDNKLFFSARANKQNYLFYYDLKEKKSNSIQISYPENSFAIPEEHSFIPKCMSDDGKYLISYEIQENDENPVIILAEK”, the “soluble on expression in E. coli” value is “not soluble”.

“MGSDKIHHHHHHQDGPLRIEITDGVIEPLPFAVPDFIADTPAAAQYATDIARVIAQDLVGSGLFREIPKVAYISPYTDFDAEVNFTDWKAINAQALIAGAVSLSGDRITVRFRGYDVFAGQELGAGLQLSGTTDGWRRIAHKVADTIYSRLTGEGGYFDSRVVFVSETGPKNDRKKRLAIMDYDGANVQYLTNSDAIVLAPRFSPTGDRVLYTSYESGFPQIHVLDVGRVQRRVLSAGNGSMSFAPRFAPNGQTIVYSQSQGGNTDLFSMDINSGNPQRLTSAPSIETAPSFSPDGSQIVFESDRSGTSQLYVMSASGGEAKRISFGQGRYGTPVWSPRGDYIAFTKQNAGRFHIGVMRTDGSEERLLTASFLDEGPTWSPNGRVIMFTRETQGASGQARLYSVDISGRNLKPVKTPDGASDPSWSPLQN”: the “soluble on expression in E. coli” value is “not soluble”.

On to “MGSDKIHHHHHHRLVEVGKGFSSTSVNTTVFRNNSIVTHGNTQYISYYDAEGWLMLGKRRLGTGEWILHRTQYKGHVKDAHNIISMMVDGDGYLHLSFDHHGHKLNYCRSIAPDTLVLGDKEPMIGNEEEDVTYPEFHLLADGGLLFVYRSGASGRGNMVMNRYDVKSRKWERVQDVLVDGENERNAYWQLYVDQSGTIHLSWVWRETWHVETNHDLCYARSFDGGRTWYKTNGQKYELPIRLGNAEYACRIPQNAELINQTSMSTDAGGHPYIATYWRNPDSDVPQYRIVWHDGVNWHNRQVSERKAPFSLKGGGTKMIPMSRPRMVVDNGEVYYLFRDQERGSKVSMYYTKDIQFGEWHVKDLTDFAVNAWEPSHDTELWKMKKQLHIYVQDTRQGDGEKQVETEPQMVYVLEL”, for which the “soluble on expression in E. coli” value is given as “not soluble”.

Take “MGSDKIHHHHHHSCDDDGYSIGDIGWDWATVRATGGGGYYLEGDRWGMIDPVASSIPWYKPVDGERVVAFFNPLADTDKGAQVKIEGIQEVLTKEVEDMTAENEEEFGNDPIVIYQGDMWLGGKFLNIIFHQYLPRSEKHRISLVQNKIEPEAPETPEALNVDEDGYIHLELRYNTYDDVTGYRGWGRVSYNLEEFYPTAKDAAETEFKGFKVTINSKENGEGRVIVLDLDHPVGVPEKAKDVHSTSFVK”: the “soluble on expression in E. coli” value was “not soluble”.

With “MGSDKIHHHHHHSDIASSVNGGSNRLADGGDFELGMSVYGINQIDVRQTGSGTAQLSLLVSGMYQYKGMFVEMIHQSQDGVNLGVNLWSSEDWSFDLLLANLQGSWSRPDLDPSTLDEAGRNAYLLSEDSLYIGAGFRATRYWGDNYVFQYRLVSDYYDDQGIQSSARLGKSWQVRNWNFHVLGSVGYSSATLNRYLFGVSKEEATELFPEYHPSSSFSYGMELGVAYPLSESFVFRAMYRFNVLSKEVTDSPFNQAGYASFFNASISYVF”, the “soluble on expression in E. coli” value is recorded as “not soluble”.

As to “MGSDKIHHHHHHSDLTSAQVAERLLVSQPKISLLENGHRAISPRDVRDLCELYGVTDRQVIDSLMRMARESGQQGWWNTYGNIPNSVYIGLETDASSIHTYEPMVIPDLLQTPAYAHAVIETTVPPIPAQQADARLKVRLRRQHRIYDPARPLRLWVVLDEPALHRVVGRPDIMREQLEHLNALSAEPHITVQVLPYTAGAHPGRQGQFSVLRFADSPEAGMVYLERFTSDLYLKKPSEVQQYSMMYDHLQARALSPEGTRDFVTDVTKSHIDVASRP”, the “soluble on expression in E. coli” value is reported as “not soluble”.

“MGSDKIHHHHHHSDSFTYPSAYGWWSVDNGYDVNNVNSRMVSGDFNGDGKADVATFYDYGNGASRIHVFTSNGSSFDYASAYGWWNTPSGYDPKRITAVVAGDFNGDHKDDIAVIYNYGNSETRIHVFISTGSSFSYTDCNGWWNATGYDAGRITGAVAGDFNGDGKSDIATMYDYGGGETRIHVFTSTGSSFTYTGANGWWNSTGYDSNRVKGRVVAGDFNGDGKTDIAAMYDYGGSESRIHVFLSTGDSFKYTGANGWWSTTGYDANKVTGRLVAGDFNGDGKADIAAMYDYGNAETRIHVLTSNGDSFTYTGANGWWNTTGYDANRVTGRVVAGDFNGDHKADIAAFYDYGSSASRIHVFTSNADSPESSKGAELVAYAESFLGVPYVWGGADPSGFDCSGLVQYCYEHFGVDLPRTTYDQVNCGTTVTDDLQPGDLLFFGSATSPTHVAIYAGNSKMVEAPHTGANVRLVDIRSYFIAKRIFN”: the “soluble on expression in E. coli” value is “not soluble”.

Take “MGSDKIHHHHHHSQRQMDIIGNNLANSSTLGYKSADTQFANMLSQSLTSGSGSFQVGQGVAISSVNTKFDQGSFESTGSVTDMAIDGEGFFPVKDKEGAIYYTRAGAFVIDKDGYLVDVNGYRVQGINLFSAPGDAELTDICLKNIQSAPSATKTFGIGVNLNDSEDAGTSFVVSQNVFDSKGAIHNLSLTFTKTEGDGYWGCQAKLDNVETINSSCCGIKFDESGNLKNTYLTSCSAGAVSGGGAITSTTVNKPGQLYLNGTIACTRGADADTWTISSSEYPNLEFSLGDLGNDDEIAIDLDGKGGTDITLALGAGFADLSSFDLTISQVESNAADVTFEFPGLANGADIGSGNALTWNLIGDDALQVTGYAATSVIKALEVDGYTSGVLKSLSVEKDGIISGIFTNGQTSDLGQVVLANFPNVGALRKIGSYFAETNFSGAAIINSPGTGGLGEIMSNSLEQSNTDVSMEFVNMINAQRAYQASARIITTSDEMLTELMNIKR”: the “soluble on expression in E. coli” value is recorded as “not soluble”.

For the sequence “MGSDKIHHHHHHSRSTKGVRELSLFNRHTGEYNNGSYWVDGHYQSEVLADFSHLLRDHRQNVAAPMDKRLFDLLYTLKSTLNTDKEIHVISGYRSPKTNAMLAGKSGGVAKKSYHMQGMAMDIAIPGVNLKTIRDAALSLKLGGVGYYPKSGFVHVDCGPVRHW”, the “soluble on expression in E. coli” value is reported as “not soluble”.
